Results on 36 sequences are retold here after the supplement of paper PMC10567573.

± gives the standard deviation.

This series is described as follows: protein stability index of a GFP-peptide fusion (GPS, HEK-293T) (PSI 1-6); higher = more stable. Conditions: c terminus: a fixed tail appended.
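Further: 24-mer peptide tiles fused after GFP, lentivirally expressed, FACS-sorted into six equal bins by GFP/DsRed ratio, decoded by Illumina sequencing, PSI is the read-weighted mean bin number.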

Regarding RRPRTAFTQNQIEVLENVFRVNCY [HESX1], the protein stability index reads like this: (treatment: DMSO) 2.39 ± 0.15; (treatment: MLN4924 1 uM, 8 h) 2.53 ± 0.24.
Turning to RRQQAKLKELQAIAERLGCTLPQL [KCNAB2], the protein stability index reads like this: (treatment: DMSO) 2.99 ± 0.17; (treatment: MLN4924 1 uM, 8 h) 3.19 ± 0.3.
The corresponding values for RSANGFPYREDEEGAFGEHGSQGT [MAP2] are 5.38 ± 0.25 and 5.41 ± 0.2.
The matching figures for RSVSDQFYRYKMPRLIAKVEGKGN [EIF5]: 3.47 ± 0.19 and 3.46 ± 0.21.
The corresponding values for RVIEVLPRGATAAVLAPDSSNASS [SEPHS2] are 4.31 ± 0.19 and 4.42 ± 0.18.
RVLHDFGLDGYRGYSLADWVCLAY [SPACA3]: the protein stability index came out at 2.2 ± 0.34 (treatment: DMSO) and 2.21 ± 0.18 (treatment: MLN4924 1 uM, 8 h).
The matching figures for RVTVSRASSSRSVRTTRGKRKRVD [LMNB1]: 4.46 ± 0.2 and 4.34 ± 0.1.
In the case of RWDLSPEQIKTRTEELIVQTKQVY [NLN], the protein stability index (treatment: DMSO) amounted to 3.44 ± 0.32 and the protein stability index (treatment: MLN4924 1 uM, 8 h) came out at 3.8 ± 0.088.
The matching figures for RWLPEKRANPCLSSSNEHAAPAAK [ELOA2]: 4.25 ± 0.18 and 4.08 ± 0.16.
With SAESMVEYGTCMCLVKGIFYHCSN [SPRY1], the protein stability index (treatment: DMSO) worked out at 2.65 ± 0.42 and the protein stability index (treatment: MLN4924 1 uM, 8 h) was found to be 2.55 ± 0.34.
The corresponding values for SAFSSRGSLSLSFEREPSTSDLGT [RIPK4] are 4.01 ± 0.14 and 4.13 ± 0.14.
For SAPQQNGQPLRPLVPDASKQRLME [PDLIM7], the protein stability index amounted to 4.73 ± 0.34 (treatment: DMSO) and 4.89 ± 0.33 (treatment: MLN4924 1 uM, 8 h).
The corresponding values for SATCTTGVMSAYAMCVRYDGVEVD [ADAMTSL2] are 2.72 ± 0.32 and 2.63 ± 0.17.
The corresponding values for SCAGGRLFQQSCPTGLVFSNSCKC [CHIT1] are 2.98 ± 0.17 and 3.05 ± 0.24.
The corresponding values for SCGGDGGIVVWNMDVERQETPEWL [WDFY2] are 3.82 ± 0.34 and 3.79 ± 0.18.
As to SDINSIRRILDELTLCKSDLESQV [KRT34], the protein stability index by setting is: (treatment: DMSO) 3.34 ± 0.2; (treatment: MLN4924 1 uM, 8 h) 3.1 ± 0.37.
With SDLEDMEEEEGTRSPTLEPPRGRS [SMG5], the protein stability index (treatment: DMSO) was determined as 5.37 ± 0.16 and the protein stability index (treatment: MLN4924 1 uM, 8 h) came to 5.39 ± 0.2.
The matching figures for SDSGSDKSLEGGGTAFDAETDSEM [SMG5]: 5.54 ± 0.15 and 5.62 ± 0.19.
The corresponding values for SEADASHCIQQILESVNHCHLNGI [CAMK2D] are 2.98 ± 0.27 and 2.89 ± 0.33.
Consider SEAKLYGRCELARVLHDFGLDGYR [SPACA3], for which the protein stability index reads like this: (treatment: DMSO) 2.23 ± 0.15; (treatment: MLN4924 1 uM, 8 h) 2.42 ± 0.13.
The matching figures for SEELLSLKYENDYPSVILRDPLQT [ETS1]: 4.05 ± 0.14 and 4.14 ± 0.13.
The corresponding values for SEGACEKEKQSRDFQGRILSVDPE [RHOBTB1] are 5.22 ± 0.42 and 5.12 ± 0.35.
The corresponding values for SEPIRRAGKSGTSTPTTPGSTAIT [MAP2] are 4.66 ± 0.25 and 4.65 ± 0.2.
With SEQESLLQQAQAQFRMAQEEARRN [SMG5], the protein stability index (treatment: DMSO) worked out at 5.19 ± 0.2 and the protein stability index (treatment: MLN4924 1 uM, 8 h) was determined as 5.14 ± 0.31.
In the case of SFFAAQAGARKIYAVEASTMAQHA [CARM1], the protein stability index runs as follows: (treatment: DMSO) 2.8 ± 0.45; (treatment: MLN4924 1 uM, 8 h) 2.78 ± 0.69.
The matching figures for SFVLSSLQLGEGVEFDVLPAFDAL [OAS1]: 2.45 ± 0.59 and 2.26 ± 0.53.
The corresponding values for SHRFPEDHDPTIEDAYKIRIRIDD [RIT1] are 3.98 ± 0.19 and 4.28 ± 0.31.
The corresponding values for SILRAPAYPLELQGQPDPAPRPGP [MOSPD3] are 4.53 ± 0.28 and 4.39 ± 0.43.
On to SKLRNYRKDLAKLHREVRSTPLTA [VTI1B], for which the protein stability index by setting is: (treatment: DMSO) 3 ± 0.25; (treatment: MLN4924 1 uM, 8 h) 3.26 ± 0.26.
SLARNPAPGVLTNKRKTYTESYIA [ZC2HC1A]: the protein stability index is, setting by setting: (treatment: DMSO) 3.22 ± 0.21; (treatment: MLN4924 1 uM, 8 h) 3.23 ± 0.41.
Turning to SLHCLLDQFDKDLPVYLKKDPAYF [DENND6A], the protein stability index worked out at 2.13 ± 0.41 (treatment: DMSO) and 2.23 ± 0.23 (treatment: MLN4924 1 uM, 8 h).
Regarding SLISLSNNTGKNLELKFVSSLRRQ [TENT5D], the protein stability index (treatment: DMSO) was found to be 2.34 ± 0.081 and the protein stability index (treatment: MLN4924 1 uM, 8 h) amounted to 2.58 ± 0.098.
The corresponding values for SLKEELMCLKKNHEEEVSVLRCQL [KRT36] are 3.09 ± 0.31 and 3.23 ± 0.4.
As to SLNGPLSTSRHVMAPVMAHVDPEE [ADAMTS4], the protein stability index reads like this: (treatment: DMSO) 4.5 ± 0.25; (treatment: MLN4924 1 uM, 8 h) 4.49 ± 0.25.
SLRDSGYFYDPIERDIEIGFLPWL [RSPH3]: the protein stability index runs as follows: (treatment: DMSO) 2.28 ± 0.49; (treatment: MLN4924 1 uM, 8 h) 2.37 ± 0.47.
The matching figures for SLSSIATCVYIAEIAPQHRRGLLV [SLC2A12]: 2.6 ± 0.81 and 2.6 ± 0.52.
